Paper doi:10.1101/2020.06.01.127969

Molecular target: RNA polymerase II with SNAP-tagged Rpb1 labelled with SNAP-Surface 549 (Rpb1^SNAP549) (S. cerevisiae) (UniProt P04050)
Assay: CoSMoS

Sequence of UniProt P04050 (P04050 whole entry, looked up): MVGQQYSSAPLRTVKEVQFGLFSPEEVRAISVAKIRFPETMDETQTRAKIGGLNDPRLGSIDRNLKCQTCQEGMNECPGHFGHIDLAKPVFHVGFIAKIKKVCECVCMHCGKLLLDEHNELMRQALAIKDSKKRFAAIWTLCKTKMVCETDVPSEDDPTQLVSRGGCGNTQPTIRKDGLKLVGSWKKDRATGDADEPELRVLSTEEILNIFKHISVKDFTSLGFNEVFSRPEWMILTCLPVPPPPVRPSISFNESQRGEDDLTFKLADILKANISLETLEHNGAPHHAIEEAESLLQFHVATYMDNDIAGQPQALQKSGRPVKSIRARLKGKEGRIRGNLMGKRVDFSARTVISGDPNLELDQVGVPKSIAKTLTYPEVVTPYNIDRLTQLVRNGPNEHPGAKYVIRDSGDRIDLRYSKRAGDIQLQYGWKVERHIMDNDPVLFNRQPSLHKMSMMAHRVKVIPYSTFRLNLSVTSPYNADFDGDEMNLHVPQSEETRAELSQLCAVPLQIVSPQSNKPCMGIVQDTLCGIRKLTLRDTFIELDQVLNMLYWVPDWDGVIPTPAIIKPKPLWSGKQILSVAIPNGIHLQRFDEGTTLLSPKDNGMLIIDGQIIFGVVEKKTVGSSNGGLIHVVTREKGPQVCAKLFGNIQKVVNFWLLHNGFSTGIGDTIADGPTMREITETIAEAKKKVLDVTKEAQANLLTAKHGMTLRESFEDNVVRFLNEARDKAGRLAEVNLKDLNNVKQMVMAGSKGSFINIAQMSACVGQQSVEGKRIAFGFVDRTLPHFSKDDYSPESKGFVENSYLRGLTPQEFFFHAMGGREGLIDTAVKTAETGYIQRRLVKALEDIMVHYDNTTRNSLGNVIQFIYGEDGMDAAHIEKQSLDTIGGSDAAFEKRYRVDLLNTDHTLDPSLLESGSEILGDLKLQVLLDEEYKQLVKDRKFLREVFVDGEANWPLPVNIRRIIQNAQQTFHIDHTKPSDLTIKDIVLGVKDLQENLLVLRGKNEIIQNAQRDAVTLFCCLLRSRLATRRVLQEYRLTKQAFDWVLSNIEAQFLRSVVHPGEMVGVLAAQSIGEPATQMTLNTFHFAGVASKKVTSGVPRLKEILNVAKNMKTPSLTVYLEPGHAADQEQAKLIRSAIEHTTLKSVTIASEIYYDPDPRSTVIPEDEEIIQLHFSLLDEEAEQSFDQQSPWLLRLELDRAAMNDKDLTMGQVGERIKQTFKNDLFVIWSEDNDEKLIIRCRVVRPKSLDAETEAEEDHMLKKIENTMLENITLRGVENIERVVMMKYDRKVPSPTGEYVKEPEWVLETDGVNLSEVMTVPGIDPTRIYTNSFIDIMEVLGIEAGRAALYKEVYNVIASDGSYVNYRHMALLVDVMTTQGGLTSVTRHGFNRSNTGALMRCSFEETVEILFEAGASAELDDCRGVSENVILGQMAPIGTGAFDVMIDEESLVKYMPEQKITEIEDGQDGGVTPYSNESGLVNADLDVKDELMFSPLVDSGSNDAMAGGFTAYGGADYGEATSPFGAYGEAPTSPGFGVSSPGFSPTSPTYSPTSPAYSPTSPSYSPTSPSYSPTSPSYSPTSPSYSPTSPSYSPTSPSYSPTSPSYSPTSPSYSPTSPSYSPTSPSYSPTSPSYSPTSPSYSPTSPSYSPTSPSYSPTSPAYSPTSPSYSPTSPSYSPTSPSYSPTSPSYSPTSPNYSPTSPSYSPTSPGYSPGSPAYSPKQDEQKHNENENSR

B1: elongation factor Spt4/5 with DHFR-tagged Spt5 labelled with Cy5-TMP (Spt5^DHFR-Cy5) (complex)
chain 1: MSDNSDTNVSMQDHDQQFADPVVVPQSTDTKDENTSDKDTVDSGNVTTTESTERAESTSNIPPLDGEEKEAKSEPQQPEDNAETAATEQVSSSNGPATDDAQATLNTDSSEANEIVKKEEGSDERKRPREEDTKNSDGDTKDEGDNKDEDDDEDDDDDDDDEDDDDEAPTKRRRQERNRFLDIEAEVSDDEDEDEDEEDSELVREGFITHGDDEDDEASAPGARRDDRLHRQLDQDLNKTSEEDAQRLAKELRERYGRSSSKQYRAAAQDGYVPQRFLLPSVDTATIWGVRCRPGKEKELIRKLLKKKFNLDRAMGKKKLKILSIFQRDNYTGRIYIEAPKQSVIEKFCNGVPDIYISQKLLIPVQELPLLLKPNKSDDVALEEGSYVRIKRGIYKGDLAMVDQISENNLEVMLKIVPRLDYGKFDEIDPTTQQRKSRRPTFAHRAPPQLFNPTMALRLDQANLYKRDDRHFTYKNEDYIDGYLYKSFRIQHVETKNIQPTVEELARFGSKEGAVDLTSVSQSIKKAQAAKVTFQPGDRIEVLNGEQRGSKGIVTRTTKDIATIKLNGFTTPLEFPISTLRKIFEPGDHVTVINGEHQGDAGLVLMVEQGQVTFMSTQTSREVTITANNLSKSIDTTATSSEYALHDIVELSAKNVACIIQAGHDIFKVIDETGKVSTITKGSILSKINTARARVSSVDANGNEIKIGDTIVEKVGSRREGQVLYIQTQQIFVVSKKIVENAGVFVVNPSNVEAVASKDNMLSNKMDLSKMNPEIISKMGPPSSKTFQQPIQSRGGREVALGKTVRIRSAGYKGQLGIVKDVNGDKATVELHSKNKHITIDKHKLTYYNREGGEGITYDELVNRRGRVPQARMGPSYVSAPRNMATGGIAAGAAATSSGLSGGMTPGWSSFDGGKTPAVNAHGGSGGGGVSSWGGASTWGGQGNGGASAWGGAGGGASAWGGQGTGATSTWGGASAWGNKSSWGGASTWASGGESNGAMSTWGGTGDRSAYGGASTWGGNNNNKSTRDGGASAWGNQDDGNRSAWNNQGNKSNYGGNSTWGGH
chain 2: MSSERACMLCGIVQTTNEFNRDGCPNCQGIFEEAGVSTMECTSPSFEGLVGMCKPTKSWVAKWLSVDHSIAGMYAIKVDGRLPAEVVELLPHYKPRDGSQVE
modifications: Cy5-trimethoprim (Cy5-TMP) bound non-covalently to the DHFR tag
Binder B1 has a 1/k-5 (average time to dissociate from elongation complexes) of 56 s, a frequency of association with a DNA containing Rpb1^SNAP549, with added NTPs of 0.0094 s⁻¹ and a kapp = k-5 + k6 (aggregate dissociation rate constant, pooled events) of 0.021 s⁻¹. The kapp,prior (only events in which Spt4/5 left before RNApII) was 0.021 s⁻¹ and the kapp,simul (only events in which Spt4/5 and RNApII left simultaneously) was 0.018 s⁻¹.
